Source: patent EP2292266A1

Key:
ErbB2 (human) [1] = molecular target: ErbB2 (human) (UniProt P04626); assay: FRET acceptor photobleaching
ErbB2 (human) [2] = molecular target: ErbB2 (human) (UniProt P04626); assay: FRET acceptor photobleaching in fixed, HRG-treated SKBr3 cells (Alexa488 donor on Copine-III, Cy3 acceptor on ErbB2)
[3] = molecular target: pTyr1248-containing peptide of ErbB2 (desthiobiotin-…-NH2, Tyr-phosphorylated form) (human); assay: SILAC peptide affinity pull-down from T47D lysates, MRM mass spectrometry; reference is the non-phosphorylated Tyr1248 peptide

Copine III, sequence (O75131 whole entry): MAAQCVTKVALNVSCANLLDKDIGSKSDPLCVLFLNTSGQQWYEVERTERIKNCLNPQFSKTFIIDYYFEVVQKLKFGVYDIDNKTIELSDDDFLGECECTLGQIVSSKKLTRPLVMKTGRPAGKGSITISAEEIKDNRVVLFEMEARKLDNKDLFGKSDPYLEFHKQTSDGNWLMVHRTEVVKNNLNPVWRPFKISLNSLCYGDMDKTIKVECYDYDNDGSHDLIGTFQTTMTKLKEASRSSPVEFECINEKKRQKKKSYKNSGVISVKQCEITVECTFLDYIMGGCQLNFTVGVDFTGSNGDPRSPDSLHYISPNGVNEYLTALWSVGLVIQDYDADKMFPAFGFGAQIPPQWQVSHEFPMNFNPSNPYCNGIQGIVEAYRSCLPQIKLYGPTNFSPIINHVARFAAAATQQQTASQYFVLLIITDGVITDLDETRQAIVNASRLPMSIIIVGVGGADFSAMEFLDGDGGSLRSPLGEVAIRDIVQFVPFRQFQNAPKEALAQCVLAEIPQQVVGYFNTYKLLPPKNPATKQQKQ

Q: Which results are given for Copine III (from UniProt O75131 1-537)?
A: FRET efficiency (ErbB2 (human) [1]): 8; FRET efficiency (E) (ErbB2 (human) [2]): 8.3; quantification ratio (heavy/light peak area, pTyr peptide over Tyr peptide) [3]: 1.8
